Consider three molecules from paper PMC3539977, “Plant Coilin: Structural Characteristics and RNA-Binding Properties” (PLoS ONE, 2013).

Data set [1] concerns NOD-RK1 (Arabidopsis thaliana). As to the kind of experiment: EMSA. To be noted: apparent; EMSA: 20 mM Tris-HCl pH 7.5, 1 mM DTT, 3 mM MgCl2, 50 mM NaCl, on ice 15 min; 0.1 ug RNA, 2% Tris-acetate agarose gel. In general terms: In EMSA bound probe runs differently from free probe, usually more slowly.
Data set [2] concerns NOD (Arabidopsis thaliana). As to the kind of experiment: EMSA. The settings on record: apparent; EMSA: 20 mM Tris-HCl pH 7.5, 1 mM DTT, 3 mM MgCl2, 50 mM NaCl, on ice 15 min; 0.1 ug RNA, 2% Tris-acetate agarose gel.
Data set [3] relates to Co-86-608 (Arabidopsis thaliana). Briefly: EMSA. To be noted: apparent; RNA taken as U1 snRNA; EMSA: 20 mM Tris-HCl pH 7.5, 1 mM DTT, 3 mM MgCl2, 50 mM NaCl, on ice 15 min; 0.1 ug RNA, 2% Tris-acetate agarose gel.
For data set [4], the system named is IDD (Arabidopsis thaliana). Briefly: EMSA. The settings on record: apparent; EMSA: 20 mM Tris-HCl pH 7.5, 1 mM DTT, 3 mM MgCl2, 50 mM NaCl, on ice 15 min; 0.1 ug RNA, 2% Tris-acetate agarose gel.
The subject of data set [5] is IDD-212-350-NLS2 (Arabidopsis thaliana). Briefly: EMSA. To be noted: apparent; EMSA: 20 mM Tris-HCl pH 7.5, 1 mM DTT, 3 mM MgCl2, 50 mM NaCl, on ice 15 min; 0.1 ug RNA, 2% Tris-acetate agarose gel.
Data set [6] relates to IDD-212-350 (Arabidopsis thaliana). Briefly: EMSA. To be noted: apparent; EMSA: 20 mM Tris-HCl pH 7.5, 1 mM DTT, 3 mM MgCl2, 50 mM NaCl, on ice 15 min; 0.1 ug RNA, 2% Tris-acetate agarose gel.
Data set [7] concerns IDD-118-212 (Arabidopsis thaliana). As to the kind of experiment: EMSA. To be noted: apparent; EMSA: 20 mM Tris-HCl pH 7.5, 1 mM DTT, 3 mM MgCl2, 50 mM NaCl, on ice 15 min; 0.1 ug RNA, 2% Tris-acetate agarose gel.
Data set [8] deals with the molecule itself. Briefly: dynamic light scattering; protein at 0.05 mg/ml in 1 mM phosphate buffer pH 7.5, Zetasizer Nano ZS; free protein, and with U1 snRNA at a protein:RNA molar ratio of 5:1.

On to U1 snRNA, for which the Kd in data set [1] was 2250 nM; in data set [2] it was 760 nM; in data set [3], 40 nM; in data set [4] it was 40 nM; in data set [5], 480 nM; in data set [6], 60 nM. Further, the Kd in data set [7] amounted to 1420 nM.

B1: Arabidopsis thaliana coilin (Atcoilin), wild type (natural protein, UniProt Q8RWK8 1-608, looked up)
chain: MEEEKVRVRLVFEDRRILSKYQKKQGLTRSWVVLNRKCHRTISEFSDHIFHTFSLCEACPHGLSLSMEGFVLPPFESSCVLKDKDIVCVKKKKESLLEIVGEDSDENVYNAIEVEERPQIRPGEMLLANEEFQKETGGYESESEEDELEEEAEEFVPEKKASKKRKTSSKNQSTKRKKCKLDTTEESPDERENTAVVSNVVKKKKKKKSLDVQSANNDEQNNDSTKPMTKSKRSSQQEESKEHNDLCQLSAETKKTPSRSARRKKAKRQWLREKTKLEKEELLQTQLVVAPSQKPVITIDHQATKEKHCETLENQQAEEVSDGFGDEVVPVEVRPGHIRFKPLAGTDEASLDSEPLVENVLWNGNMTKKKGQKWGTEKSGFSKRYAQDFNEDATTQPAEAETLANCPIDYEQLVAYTGSVKKGDVIAYRLIELTSSWTPEVSSFRVGKISYYDPDSKMVTLMPVQEFPIEKKTEEDDDFCMQPDTSLYKEDGSLEIEFSALLDVRSVKTSSSDSAEVAKSALPEPDQSAKKPKLSANKELQTPAKENGEVSPWEELSEALSAKKAALSQANNGWNKKGSSSGGSWSYKALRGSAMGPVMNYLRSQKEI
notes: coilin of Arabidopsis thaliana, a 608-amino acid protein (NM_101173.4; GI:42562030); Cloned into the PQE30 vector; forms oligomers larger than a decamer in solution by DLS; also called wt coilin; wt Atcoilin; source: E. coli JM109, purified under denaturing conditions (Ni-NTA agarose), renatured by dialysis
Consider B1, for which the “stoichiometry N” value in data set [8] was greater than 10.

B2: Atcoilin N-terminal ordered domain (NOD), residues 1-117 (domain or fragment, Arabidopsis thaliana, UniProt Q8RWK8 1-117, looked up)
chain: MEEEKVRVRLVFEDRRILSKYQKKQGLTRSWVVLNRKCHRTISEFSDHIFHTFSLCEACPHGLSLSMEGFVLPPFESSCVLKDKDIVCVKKKKESLLEIVGEDSDENVYNAIEVEER
notes: coilin of Arabidopsis thaliana (NM_101173.4; GI:42562030), NOD, 1-117 aa residues; also called N-terminal domain; source: E. coli JM109, purified under denaturing conditions (Ni-NTA agarose), renatured by dialysis
On to B2, for which, in data set [8], the binding result was “binds”.

A word on the stoichiometry N: it is the number of molecules, sites or subunits per partner or assembly.
